{
  "source": "patent US20150203556A1",
  "about": "(UAB RESEARCH FOUNDATION, published 2015)",
  "binders": {"B1": {"name": "IL-20R1-FC (Fc fusion)", "chain": "VPCVSGGLPKPANITFLSINMKNVLQWTPPEGLQGVKVTYTVQYFIYGQKKWLNKSECRNINRTYCDLSAETSDYEHQYYAKVKAIWGTKCSKWAESGRFYPFLETQIGPPEVALTTDEKSISVVLTAPEKWKRNPEDLPVSMQQIYSNLKYNVSVLNTKSNRTWSQCVTNHTLVLTWLEPNTLYCVHVESFVPGPPRRAQPSEKQCARTLKDQSSEFKAKGSGGGGPSVFIFPPKIKDVLMISLSPIVTCVVVDVSEDDPDVQISWFVNNVEVHTAQTQTHREDYNSTLRVVSALPIQHQDWMSGKEFKCKVNNKDLPAPIERTISKPKGSVRAPQVYVLPPPCEEMTKKQVTLYCMVTDFMPEDIYVEWTNNGKTELNYKNTEPVLDSDGSYFMYSKLRVEKKNWVERNSYSCSVVHEGLHNHHTTKSFSRTPGKGLEASGGLNDIFEAQKIEWHEGTGHHHHHH", "notes": "also called IL-20R-fc"}, "B2": {"name": "IL22R1ddq-FCkh (MONO) (Fc fusion)", "chain": "AHAPEDPSDLLQHVKFQSSNFENILTWDSGPEGTPDTVYSIEYKTYGERDWVAKKGCQRITRKSCDLTVETGDLQELYYARVTAVSAGGRSATKMTDRFSSLQHTTLKPPDVTCISKVRSIQMIVHPTPTPIRAGDGHRLTLEDIFHDLFYHLELQVNRTYQMHLGGKQREYEFFGLTPDTEFLGTIMICVPTWAKESAPYMCRVKTLPDRTWTYSGSGGGGPSVFIFPPKIKDVLMISLSPIVTCVVVDVSEDDPDVQISWFVNNVEVHTAQTQTHREDYNSTLRVVSALPIQHQDWMSGKEFKCKVNNKDLPAPIERTISKPKGSVRAPQVYVLPPPCEEMTKKQVTLYCMVTDFMPEDIYVEWTNNGKTELNYKNTEPVLDSDGSYFMYSKLRVEKKNWVERNSYSCSVVHEGLHNHHTTKSFSRTPGKGLEASGGLNDIFEAQKIEWHEGTGHHHHHH"}, "B3": {"name": "IL-19/IL-20R2 binary complex (other)", "chain 1": "LRRCLISTDMHHIEESFQEIKRAIQAKDTFPNVTILSTLETLQIIKPLDVCCVTKNLLAFYVDRVFKDHQEPNPKILRKISSIANSFLYMQKTLRQCQEQRQCHCRQEATNATRVIHDNYDQLEVHAAAIKSLGELDVFLAWINKNHEVMFSA", "chain 2": "DEVAILPAPQQLSVLSTNMKHLLMWSPVIAPGETVYYSVEYQGEYESLYTSHIWIPSSWCSLTEGPECDVTDDITATVPYNLRVRATLGSQTSAWSILKHPFNRQSTILTRPGMEITKDGFHLVIELEDLGPQFEFLVAYWRREPGAEEHVKMVRSGGIPVHLETMEPGAAYCVKAQTFVKAIGRYSAFSQTECVEVQGEA", "notes": "IL-19 with IL-20R2 that carries no FC: amine coupled on the chip, or soluble; also called IL-19+soluble IL-20R2"}, "B4": {"name": "IL-20/IL-20R2 binary complex (other)", "chain 1": "MLKTLNLGSCVIATNLQEIRNGFSEIRGSVQAKDGNIDIRILRRTESLQDTKPANRCCLLRHLLRLYLDRVFKNYQTPDHYTLRKISSLANSFLTIKKDLRLCHAHMTCHCGEEAMKKYSQILSHFEKLEPQAAVVKALGELDILLQWMEETE", "chain 2": "B3 chain 2", "notes": "also called 20 + 20R2; IL-20+soluble IL-20R2"}, "B5": {"name": "soluble IL-20R2 (receptor)", "chain": "B3 chain 2", "notes": "also called IL-20R2* (amine coupled IL-20R2)"}},
  "key": {"IL-20 [1]": {"molecular_target": "T1, IL-20 (human, UniProt Q9NYY1 25-176)", "T1 construct": "The crystal model holds residues 24-176; also called Interleukin-20; IL-20b", "T1 sequence": "B4 chain 1", "assay": "SPR, site KD as listed in Table 5"}, "IL-20 [2]": {"molecular_target": "T1, IL-20", "assay": "SPR (Biacore), IL-20 (10-0.625 µM) over IL-20R1-fc captured by anti-FC Ab", "method": "(§1) FIGS. 12A-12H are graphs showing IL19/IL-20 receptor interactions and complex stability. SPR sensorgrams, data fits (black lines), KD values, and residual errors obtained for complexes described at the top of each panel. Panels are labeled as injected soluble proteins, followed by a semicolon (:), then the protein coupled to chip surface, IL-20R1 or IL-20R2. FIGS. 12A and 12B show injection of IL-19 and IL-20 (max conc.=10 μM, 2 fold diluted to 0.625 μM) over IL-20R1. FIGS. 12C and 12D show injection of IL-19 (max conc.=500 nM, 2-fold diluted to 3.91 nM) or IL-20 (max conc.=2000 nM, 2-fold diluted to 62.5 nM) over IL-20R2. FIGS. 12E-12H show IL-19 and IL-20 (fixed at 250 nM) mixed with different concentrations of IL-20R1, or IL-22R1, (max conc.=1000 nM, 2-fold diluted to 7.81 nM) and injected over IL-20R2. To estimate R1 chain affinity/complex stability, the contribution of the ligand was removed by using the 250 nM IL-19, or IL-20, sensorgram as the blank subtraction. All sensorgrams were fit to 1:1 binding models.\n(§2) Surface Plasmon Resonance Experiments SPR experiments were performed on Biacore T-100, and T-200, (GE healthcare, Waukesha, Wis.) systems. […] Soluble proteins were injected for 75-90 seconds (30 uL/min) over the surfaces, and the dissociation phase was followed for 75-120 seconds depending on the stability of the complex being analyzed. […]"}, "IL-19 [3]": {"molecular_target": "T2, IL-19 (human, UniProt Q9UHD0 25-177)", "T2 construct": "also called Interleukin-19; IL-19a", "T2 sequence": "B3 chain 1", "assay": "SPR, IL-19 (10 µM, 2-fold diluted to 0.625 µM) injected over IL-20R1 (IL-20R1-fc in Table 4)", "method": "as §1, §2"}, "IL-22": {"molecular_target": "T3, IL-22 (Homo sapiens (Human), UniProt Q9GZX6 35-179, limits assumed)", "T3 construct": "also called IL-22 wt", "T3 sequence": "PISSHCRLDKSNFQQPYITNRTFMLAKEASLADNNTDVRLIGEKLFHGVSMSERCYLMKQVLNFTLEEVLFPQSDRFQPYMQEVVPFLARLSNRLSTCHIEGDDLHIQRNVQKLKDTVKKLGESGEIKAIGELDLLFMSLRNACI", "assay": "SPR, IL-22 as analyte over IL22R1ddq-FCkh (MONO) as ligand"}, "IL-20R1 triple mutant M3": {"molecular_target": "T4, IL-20R1 triple mutant M3 (UniProt Q9UHF4 29-245)", "T4 construct": "range 29-245; also called IL-20R1 site 3 mutant", "T4 sequence (looked up)": "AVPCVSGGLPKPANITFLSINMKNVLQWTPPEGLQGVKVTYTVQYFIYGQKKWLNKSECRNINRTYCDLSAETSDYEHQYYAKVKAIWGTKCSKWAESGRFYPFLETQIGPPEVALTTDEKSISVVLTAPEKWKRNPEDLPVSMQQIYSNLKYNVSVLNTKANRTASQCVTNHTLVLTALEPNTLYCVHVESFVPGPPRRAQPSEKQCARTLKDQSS", "assay": "SPR, IL-19 co-injected with M3 over an IL-20R2 coupled Biacore chip", "method": "FIGS. 9A-9D show the IL-20 site 3 interface is essential and distinct from other complexes. FIG. 9A is a ribbon diagram showing the site 3 interface between IL-20R1 and IL-20R2. FIG. 9B is a graph showing the importance of the site 3 interface in ternary complex formation. SPR sensograms obtained by injecting cytokines (IL-19 or IL-20, at 250 nM) and/or receptors (IL-20R1 or M3, at 425 nM), as labeled on the figure, over an IL-20R2 coupled biacore chip. Injection of IL-20+IL-20R1 results in a large response consistent with ternary complex formation. However, injection of IL-20+M3, an IL-20R1 site 3 mutant with S190^IL-20R1, W194^IL-20R1, and W207^IL-20R1 mutated to alanine drastically reduces binding due to disruption of ternary complex formation. Similar results are observed for complex formation by IL-19. FIG. 9C is a ribbon diagram of the superposition of the D2 domains of GHR site 1, IL-6R, and IL-20R1. The positions of the D2 domains of GHR site2, GP130, and IL-20R2 are shown, along with a schematic of the differences in their orientations. FIG. 9D is a ribbon diagram showing the putative model of the IL-22/IL-22R1/IL-10R2 complex based on the IL-20 ternary complex structure. […]"}, "IL-20R1-FC": {"molecular_target": "B1", "assay": "SPR co-injection: IL-20 (1000-31.25 nM) with soluble IL-20R2 fixed at 500 nM over IL-20R1-FC surface, 1:1 fit", "method": "(§3) FIGS. 13A-13D are graphs showing stability of IL-19 and IL-20 ternary complexes. Stability of the ternary complexes were determined by co-injecting IL-19+soluble IL-20R2 (FIGS. 13B and 13D), or IL-20+soluble IL-20R2 (FIGS. 13A and 13C), over an IL-20R1-FC coupled surface. The concentration of soluble IL-20R2 in these experiments was fixed at 500 nM. IL-19 and IL-20 concentrations varied from 1000 nM to 31.25 nM (2 fold dilutions). IL-19/soluble IL-20R2 and IL-20/IL-20R2 were also injected over an IL-22R1 coupled surface. The SPR sensorgrams are labeled as injected proteins, followed by a semicolon (:), then the protein coupled to the chip surface, IL-20R1 or IL-22R1. All sensograms yielding binding responses were fit to 1:1 binding models.\n(§4) Surface Plasmon Resonance Experiments SPR experiments were performed on Biacore T-100, and T-200, (GE healthcare, Waukesha, Wis.) systems. Soluble IL-20R2 was amine coupled (100-130 RU) to CM5 research grade biacore chips in 10 mM sodium acetate, pH 5.0. IL-20R1-FC and IL-20R2-FC were coupled (60-120 RU) to CM5 chips using an anti-FC Ab coupling kit using the manufacturer's instructions (GE healthcare, Waukesha, Wis.). All binding experiments were performed in running buffer consisting of 10 mM Hepes, pH 7.4, 150 mM NaCl, 0.04% P20, and 0.1 mg/mL bovine serum albumin (Sigma, St. Louis, Mo.). No regeneration was performed between sample injections on IL-20R2 amine-coupled surfaces. IL-20R1-FC and IL-20R2-FC surfaces were regenerated after each sample injection with a 3-minute injection of glycine, pH 1.7. Soluble proteins were injected for 75-90 seconds (30 uL/min) over the surfaces, and the dissociation phase was followed for 75-120 seconds depending on the stability of the complex being analyzed. Where possible, the resultant sensorgrams were fit to 1:1 binding models using Biacore T-200 evaluation software version 1."}, "IL-22R1 (sIL-22R1DDQ)": {"molecular_target": "T5, IL-22R1 (sIL-22R1DDQ) (Homo sapiens (Human), UniProt Q8N6P7 16-226, limits assumed)", "T5 chain": "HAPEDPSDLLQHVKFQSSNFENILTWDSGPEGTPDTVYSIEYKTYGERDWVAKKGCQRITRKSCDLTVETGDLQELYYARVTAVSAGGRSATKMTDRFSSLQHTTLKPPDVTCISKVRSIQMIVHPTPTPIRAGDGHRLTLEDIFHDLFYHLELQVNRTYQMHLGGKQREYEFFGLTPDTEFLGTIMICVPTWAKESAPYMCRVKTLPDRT", "assay": "SPR co-injection: IL-20 (1000-31.25 nM) with soluble IL-20R2 fixed at 500 nM over IL-22R1 coupled surface, 1:1 fit", "method": "as §3, §4"}, "IL-19 [4]": {"molecular_target": "T2, IL-19", "assay": "SPR (Biacore), IL-19 over amine coupled IL-20R2, 1:1 fit", "method": "as §1\nas §4, with “Where possible, the resultant sensorgrams were fit to 1:1 binding models using Biacore T-200 evaluation software version 1.” left out"}, "IL-20 [5]": {"molecular_target": "T1, IL-20", "assay": "SPR (Biacore), IL-20 over amine coupled IL-20R2, equilibrium affinity (no rate constants)"}},
  "data": [
    {"binder": "B1", "values": [
      {"measurement": "Kd", "setting": "IL-20 [1]", "value": "~9", "unit": "µM"},
      {"measurement": "Kd", "setting": "IL-20 [2]", "value": "~9", "unit": "µM"},
      {"measurement": "binding result", "setting": "IL-19 [3]", "value": "no binding (tested: 10 µM)"}
    ]},
    {"binder": "B2", "values": [
      {"measurement": "Kd", "setting": "IL-22", "value": 0.00334, "unit": "µM"}
    ]},
    {"binder": "B3", "values": [
      {"measurement": "binding result", "setting": "IL-20R1 triple mutant M3", "value": "no binding (tested: 425 nM M3 with 250 nM IL-19)"}
    ]},
    {"binder": "B4", "values": [
      {"measurement": "Kd", "setting": "IL-20R1-FC", "value": 1.07, "unit": "µM"},
      {"measurement": "koff", "setting": "IL-20R1-FC", "value": 0.0168, "unit": "s⁻¹"},
      {"measurement": "kon", "setting": "IL-20R1-FC", "value": 15700, "unit": "M⁻¹ s⁻¹"},
      {"measurement": "Kd", "setting": "IL-22R1 (sIL-22R1DDQ)", "value": 1.16, "unit": "µM"},
      {"measurement": "koff", "setting": "IL-22R1 (sIL-22R1DDQ)", "value": 0.238, "unit": "s⁻¹"},
      {"measurement": "kon", "setting": "IL-22R1 (sIL-22R1DDQ)", "value": 205000, "unit": "M⁻¹ s⁻¹"}
    ]},
    {"binder": "B5", "values": [
      {"measurement": "Kd", "setting": "IL-19 [4]", "value": 0.0363, "unit": "µM"},
      {"measurement": "koff", "setting": "IL-19 [4]", "value": 0.0398, "unit": "s⁻¹"},
      {"measurement": "kon", "setting": "IL-19 [4]", "value": "1.1e+06", "unit": "M⁻¹ s⁻¹"},
      {"measurement": "Kd", "setting": "IL-20 [5]", "value": 0.87, "unit": "µM"}
    ]}
  ]
}
